Tests used:
[1] = biological target: HER2 on the surface of N87 (NCI-N87) human gastric carcinoma cells (human) (UniProt P04626); assay: cell-based or functional assay
[2] = biological target: HER2-ECD (human epidermal growth factor receptor 2-extracellular domain) (human) (UniProt P04626)

| Substance | IC50 (pM), cytotoxicity on N87 cells (WST-1) [1] [pM] | EC50 [2] [pM] |
| --- | --- | --- |
| IgG1(trastuzumab)-AL1-PE38KDEL (antibody) | 498 | – |
| scFv(trastuzumab)-PE38KDEL | – | 150 |
